Source: patent US20240270821A1, “GIP/GLP1/GCG TRI-RECEPTOR AGONISTS AND USES THEREOF” (priority 2023, published 2024)
Positions count from the first letter of the chain named. Starred links: 1 amine or outer side, 2 acyl side, 3 side chain; linkers in the order of their positions; H or OH if unused. Non-standard residues stand in square brackets, D forms with d. Groups on a side chain read outwards from the residue. No end group written: not given here. *: point of attachment. C20 diacid = O=C(O)CCCCCCCCCCCCCCCCCCC(=O)*; γGlu = O=C(O)[C@H](CCC(=O)[*:2])N[*:1]; αMeL = CC(C)C[C@](C)(N)C(=O)O; AEEA = NCCOCCOCC(=O)O; Aib = CC(C)(N)C(=O)O

T1: human GIP receptor (human) (UniProt P48546)
T1 sequence (looked up): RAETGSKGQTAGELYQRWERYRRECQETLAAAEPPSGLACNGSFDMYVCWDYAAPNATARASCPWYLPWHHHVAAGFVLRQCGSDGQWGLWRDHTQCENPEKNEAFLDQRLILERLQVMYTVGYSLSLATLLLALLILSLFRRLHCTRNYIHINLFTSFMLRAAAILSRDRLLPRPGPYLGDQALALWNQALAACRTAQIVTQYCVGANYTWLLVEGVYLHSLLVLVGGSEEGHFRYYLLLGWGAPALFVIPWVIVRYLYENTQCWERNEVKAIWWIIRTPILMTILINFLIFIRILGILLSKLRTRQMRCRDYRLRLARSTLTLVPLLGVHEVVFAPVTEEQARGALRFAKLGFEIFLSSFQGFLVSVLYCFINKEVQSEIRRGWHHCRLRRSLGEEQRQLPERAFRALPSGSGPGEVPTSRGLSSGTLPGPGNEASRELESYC

B1: Example 283 (peptide)
chain: YXQGTFTSDXSKXLDKKAQXAFIEYLIEAGESSGAPPPSGS
modifications: synthetic construct; SITE 2: note = 2-Aminoisobutyric Acid; SITE 10: note = 3-(4-Pyridyl)-L-alanine; SITE 13: note = alpha-methyl-leucine; SITE 17: note = Lysine is chemically modified through conjugation of the epsilon-amino group of the Lysine side chain with (2-[2-(2-Amino-ethoxy)-ethoxy]-acetyl)
B2: Example 284 (peptide)
chain: B1 chain with A35E
modifications: synthetic construct; SITE 2: note = 2-Aminoisobutyric Acid; SITE 10: note = 3-(4-Pyridyl)-L-alanine; SITE 13: note = alpha-methyl-leucine; SITE 17: note = Lysine is chemically modified through conjugation of the epsilon-amino group of the Lysine side chain with (2-[2-(2-Amino-ethoxy)-ethoxy]-acetyl)
B3: Example 292 (peptide)
chain: YXQGTXTSDYSKXLDKKAQXQFIEYLEEGGPSSGEPPPSEG
modifications: synthetic construct; SITE 2: note = 2-Aminoisobutyric Acid; SITE 6: note = alpha-methyl-2-fluoro-L-phenylalanine; SITE 13: note = alpha-methyl-leucine; SITE 17: note = Lysine is chemically modified through conjugation of the epsilon-amino group of the Lysine side chain with (2-[2-(2-Amino-ethoxy)-et)

The binders below were run against hGLP-1R (Homo sapiens, UniProt P43220) (assay: cell-based or functional assay).
Sequence of hGLP-1R (P43220 24-463): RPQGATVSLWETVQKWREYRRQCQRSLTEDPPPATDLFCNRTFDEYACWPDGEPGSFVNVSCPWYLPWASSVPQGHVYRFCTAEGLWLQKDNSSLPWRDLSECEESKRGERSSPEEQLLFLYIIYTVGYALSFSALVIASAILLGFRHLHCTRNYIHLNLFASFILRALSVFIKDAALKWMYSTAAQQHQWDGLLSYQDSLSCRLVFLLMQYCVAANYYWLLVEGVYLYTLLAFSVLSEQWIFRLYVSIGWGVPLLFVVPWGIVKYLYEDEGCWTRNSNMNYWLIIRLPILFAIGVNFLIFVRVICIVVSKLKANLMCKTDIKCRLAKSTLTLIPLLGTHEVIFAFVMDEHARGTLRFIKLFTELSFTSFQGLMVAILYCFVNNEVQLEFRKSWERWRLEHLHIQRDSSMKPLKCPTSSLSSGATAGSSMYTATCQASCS
For B1, the Relative cAMP EC50 was 1.16 nM and the cAMP Rel EC50 (in the presence of 1% HSA) was 233 nM. Work on B2 yielded a Relative cAMP EC50 of 1.54 nM and a cAMP Rel EC50 (in the presence of 1% HSA) of 271 nM. Work on Y[Aib]QGTFTSDYSKLLDKK([AEEA-γGlu-C20 diacid])AQ[Aib]AFVQWLIEGGPSSGEPPPSEG-NH2 [Example 316] yielded a Relative cAMP EC50 of 0.362 nM and a cAMP Rel EC50 (1% HSA) of 78.7 nM. With Y[Aib]QGTFTSDYSI[αMeL]LDKIAAK([AEEA-AEEA-γGlu-C20 diacid])QFVEWLLA[Aib]GPSSGEPPPSEG-NH2 [Example 324] the Relative cAMP EC50 was 4.4 nM and the cAMP Rel EC50 (1% HSA) was 1060 nM. B3 gave a Relative cAMP EC50 of 1.03 nM and a cAMP Rel EC50 (in the presence of 1% HSA) of 129 nM. Y[Aib]QGTFTSDYSI[αMeL]LDKQAAK([AEEA-AEEA-γGlu-C20 diacid])QFVEWLIA[Aib]GPSSGEPPPSEG-NH2 [Example 326] gave a Relative cAMP EC50 of 0.555 nM and a cAMP Rel EC50 (1% HSA) of 172 nM.

Each binder was assayed against T1, human GIP receptor (human) (assay: cell-based or functional assay).
Work on B1 yielded a Relative cAMP EC50 of 0.225 nM and a cAMP Rel EC50 (in the presence of 1% HSA) of 47.2 nM. For B2, the Relative cAMP EC50 was 0.347 nM and the cAMP Rel EC50 (in the presence of 1% HSA) was 59.8 nM. Y[Aib]QGTFTSDYSKLLDKK([AEEA-γGlu-C20 diacid])AQ[Aib]AFVQWLIEGGPSSGEPPPSEG-NH2 [Example 316] showed a Relative cAMP EC50 of 0.259 nM and a cAMP Rel EC50 (1% HSA) of 102 nM. For Y[Aib]QGTFTSDYSI[αMeL]LDKIAAK([AEEA-AEEA-γGlu-C20 diacid])QFVEWLLA[Aib]GPSSGEPPPSEG-NH2 [Example 324], the Relative cAMP EC50 was 0.164 nM and the cAMP Rel EC50 (1% HSA) was 20.7 nM. B3 was tested, and the Relative cAMP EC50 was 1.02 nM and the cAMP Rel EC50 (in the presence of 1% HSA) was 92.7 nM. Y[Aib]QGTFTSDYSI[αMeL]LDKQAAK([AEEA-AEEA-γGlu-C20 diacid])QFVEWLIA[Aib]GPSSGEPPPSEG-NH2 [Example 326] was tested, and the Relative cAMP EC50 was 0.3 nM and the cAMP Rel EC50 (1% HSA) was 83.7 nM.

What follows are binders tested against human glucagon receptor (human) (UniProt P47871) (assay: cell-based or functional assay).
Sequence of human glucagon receptor (human) (P47871 26-477): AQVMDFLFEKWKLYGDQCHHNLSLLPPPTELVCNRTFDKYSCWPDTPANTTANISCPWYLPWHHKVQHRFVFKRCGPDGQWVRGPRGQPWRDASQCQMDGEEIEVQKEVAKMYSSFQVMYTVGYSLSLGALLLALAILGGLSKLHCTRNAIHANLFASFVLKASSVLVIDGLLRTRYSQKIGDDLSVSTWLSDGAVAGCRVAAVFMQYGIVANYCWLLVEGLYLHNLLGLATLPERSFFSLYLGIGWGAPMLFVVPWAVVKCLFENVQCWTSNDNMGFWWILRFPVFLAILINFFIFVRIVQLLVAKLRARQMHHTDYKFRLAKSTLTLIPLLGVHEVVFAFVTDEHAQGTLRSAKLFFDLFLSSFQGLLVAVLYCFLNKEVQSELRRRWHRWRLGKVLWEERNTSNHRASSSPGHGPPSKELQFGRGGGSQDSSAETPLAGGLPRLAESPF
Work on B1 yielded a Relative cAMP EC50 of 9.73 nM and a cAMP Rel EC50 (in the presence of 1% HSA) of 1470 nM. B2 was tested, and the Relative cAMP EC50 was 9.21 nM and the cAMP Rel EC50 (in the presence of 1% HSA) was 1530 nM. Binder Y[Aib]QGTFTSDYSKLLDKK([AEEA-γGlu-C20 diacid])AQ[Aib]AFVQWLIEGGPSSGEPPPSEG-NH2 [Example 316] has a Relative cAMP EC50 of 5.22 nM and a cAMP Rel EC50 (1% HSA) of 2090 nM. With Y[Aib]QGTFTSDYSI[αMeL]LDKIAAK([AEEA-AEEA-γGlu-C20 diacid])QFVEWLLA[Aib]GPSSGEPPPSEG-NH2 [Example 324] the Relative cAMP EC50 was 5.74 nM and the cAMP Rel EC50 (1% HSA) was 1410 nM. In the case of B3, the Relative cAMP EC50 is reported as 1.84 nM and the cAMP Rel EC50 (in the presence of 1% HSA) is reported as 583 nM. With Y[Aib]QGTFTSDYSI[αMeL]LDKQAAK([AEEA-AEEA-γGlu-C20 diacid])QFVEWLIA[Aib]GPSSGEPPPSEG-NH2 [Example 326] the Relative cAMP EC50 was 5.34 nM and the cAMP Rel EC50 (1% HSA) was 1500 nM.
